One molecule from patent US20150023989A1, “NEW ANTIBODY DRUG CONJUGATES (ADCS) AND THE USE THEREOF” (SEATTLE GENETICS, INC., priority 2011, published 2015) can be followed below.

Assay in all cases: ELISA cross-reactivity of M048-D01 Fab
Details in all cases: Fab 1 μg/ml, TRAIL-Fc wells as background
On the technique in general: ELISA stands for enzyme-linked immunosorbent assay.

Assay [1] has as its target T1, hFGFR1β-Fc (IIIc) (Homo sapiens, UniProt P11362).
T1 construct: purchased RnD Systems 661-FR
The format is binding. As to the method: (§1) The cross-reactivity of the human antibodies M048-D01-hIgG1 and M048-D01-hIgG1-b of the present application was determined using the parental Fab fragment M048-D01 (comprising Vh: SEQ ID NO: 21 and Vl: SEQ ID NO: 22).
(§2) All of the variants took the form of Fc fusion proteins in carrier-free preparations. The proteins were biotinylated according to manufacturer instructions, using a 2-fold molar excess of biotin-LC-NHS (Pierce; Cat. No. 21347) and desalted using Zeba desalting columns (Pierce; Cat. No. 89889). For the ELISA, 96-well plates pretreated with streptavidin (Pierce, 15500) were loaded overnight at 4° C. with 1 μg/ml biotinylated protein. Wells which had been loaded with biotinylated TRAIL-Fc served as a reference. The next day the plates were washed 3× with PBST (1×PBS admixed with 0.05% Tween 20 (Sigma, P7949)), treated with blocking buffer (PBST admixed with 3% BSA (Sigma A4503)), and again washed three times with PBST. 100 μl of the purified Fab (1 μg/ml) were added, and incubation was carried out at room temperature for 1 hour. After threefold washing with PBST, an HRP-coupled anti-hIgG (Fab-specific) (diluted 1:2500, Sigma, A0293) was added, and incubation took place at room temperature for 1 hour. The colour reaction was activated by addition of 50 μl of TMB (Invitrogen, 2023) and halted after 5-15 minutes by addition of 50 μl of H2SO4 (Merck, 1120801000). The colour reaction was monitored at 450 nm in a plate reader (Tecan). The signal strengths of the wells containing TRAIL-Fc were used as background values, and the signal-to-background ratios were calculated as summarized in Table 3.

In assay [2] the target is T2, hFGFR2α-Fc (IIIb) (Homo sapiens, UniProt P21802).
T2 construct: purchased RnD Systems 663-FR
In kind it is binding. As to the method: as §1, §2

Assay [3] concerns the target T3, hFGFR2β-Fc (IIIb) (Homo sapiens, UniProt P21802).
T3 construct: purchased RnD Systems 665-FR
The format is binding. As to the method:
as §1, §2

Assay [4] has as its target T4, hFGFR3-Fc (IIIb) (Homo sapiens, UniProt P22607).
T4 construct: purchased RnD Systems 1264-FR
The format is binding. The protocol: as §1, §2

The target of assay [5] is T5, hFGFR3-Fc (IIIc) (Homo sapiens, UniProt P22607).
T5 construct: purchased RnD Systems 766-FR
T5 sequence (P22607 23-375 limits assumed): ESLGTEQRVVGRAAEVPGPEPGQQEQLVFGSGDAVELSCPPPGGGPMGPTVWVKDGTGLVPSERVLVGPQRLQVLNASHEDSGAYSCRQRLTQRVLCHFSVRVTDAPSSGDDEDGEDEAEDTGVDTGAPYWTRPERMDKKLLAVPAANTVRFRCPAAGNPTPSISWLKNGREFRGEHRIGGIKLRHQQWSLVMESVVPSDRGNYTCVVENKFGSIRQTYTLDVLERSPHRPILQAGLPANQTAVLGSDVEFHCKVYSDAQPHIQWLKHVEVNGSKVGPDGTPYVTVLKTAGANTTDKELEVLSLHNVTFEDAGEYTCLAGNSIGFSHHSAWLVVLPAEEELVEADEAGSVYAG
The format is binding. As to the method: as §1, §2

Assay [6] has as its target T6, hFGFR4-Fc (Homo sapiens, UniProt P22455).
T6 construct: purchased RnD Systems 685-MF
In kind it is binding. As to the method: as §1, §2

The target in assay [7] is T7, mFGFR2β-Fc (IIIb) (Mus musculus, UniProt P21803).
T7 construct: purchased RnD Systems 708-MF
The format is binding. The protocol:
as §1, §2

For assay [8], the target named is T8, mFGFR3-Fc (IIIc) (Mus musculus, UniProt Q61851).
T8 construct: purchased RnD Systems 710-MF
T8 sequence (Q61851 21-369 limits assumed): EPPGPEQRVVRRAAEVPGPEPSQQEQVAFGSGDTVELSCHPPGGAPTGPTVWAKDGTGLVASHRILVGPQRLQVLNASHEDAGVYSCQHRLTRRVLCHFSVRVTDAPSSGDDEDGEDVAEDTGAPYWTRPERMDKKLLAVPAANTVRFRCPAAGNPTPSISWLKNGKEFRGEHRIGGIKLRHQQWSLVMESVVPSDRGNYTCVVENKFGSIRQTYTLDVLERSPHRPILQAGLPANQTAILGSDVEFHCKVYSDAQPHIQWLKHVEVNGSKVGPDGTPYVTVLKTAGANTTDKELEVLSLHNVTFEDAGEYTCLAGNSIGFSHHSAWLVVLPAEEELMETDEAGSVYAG
The format is binding. The protocol:
as §1, §2

The test system of assay [9] is hFGFR1β-Fc (IIIb). The format is binding, Human. The protocol: as §1
as §2, with “After threefold washing with PBST, an HRP-coupled anti-hIgG (Fab-specific) (diluted 1:2500, Sigma, A0293) was added, and incubation took place at room temperature for 1 hour. The colour reaction was activated by addition of 50 μl of TMB (Invitrogen, 2023) and halted after 5-15 minutes by addition of 50 μl of H2SO4 (Merck, 1120801000).” left out

In assay [10] the test system is hFGFR2β-Fc (IIIc). In kind it is binding, Human. The protocol: as §1
as §2, with “After threefold washing with PBST, an HRP-coupled anti-hIgG (Fab-specific) (diluted 1:2500, Sigma, A0293) was added, and incubation took place at room temperature for 1 hour. The colour reaction was activated by addition of 50 μl of TMB (Invitrogen, 2023) and halted after 5-15 minutes by addition of 50 μl of H2SO4 (Merck, 1120801000).” left out

The test system of assay [11] is mFGFR2β-Fc (IIIc). The format is binding, Mouse. The protocol:
as §1
as §2, with “After threefold washing with PBST, an HRP-coupled anti-hIgG (Fab-specific) (diluted 1:2500, Sigma, A0293) was added, and incubation took place at room temperature for 1 hour. The colour reaction was activated by addition of 50 μl of TMB (Invitrogen, 2023) and halted after 5-15 minutes by addition of 50 μl of H2SO4 (Merck, 1120801000).” left out

T7 sequence (P21803 22-707 isoform P21803-2 limits assumed): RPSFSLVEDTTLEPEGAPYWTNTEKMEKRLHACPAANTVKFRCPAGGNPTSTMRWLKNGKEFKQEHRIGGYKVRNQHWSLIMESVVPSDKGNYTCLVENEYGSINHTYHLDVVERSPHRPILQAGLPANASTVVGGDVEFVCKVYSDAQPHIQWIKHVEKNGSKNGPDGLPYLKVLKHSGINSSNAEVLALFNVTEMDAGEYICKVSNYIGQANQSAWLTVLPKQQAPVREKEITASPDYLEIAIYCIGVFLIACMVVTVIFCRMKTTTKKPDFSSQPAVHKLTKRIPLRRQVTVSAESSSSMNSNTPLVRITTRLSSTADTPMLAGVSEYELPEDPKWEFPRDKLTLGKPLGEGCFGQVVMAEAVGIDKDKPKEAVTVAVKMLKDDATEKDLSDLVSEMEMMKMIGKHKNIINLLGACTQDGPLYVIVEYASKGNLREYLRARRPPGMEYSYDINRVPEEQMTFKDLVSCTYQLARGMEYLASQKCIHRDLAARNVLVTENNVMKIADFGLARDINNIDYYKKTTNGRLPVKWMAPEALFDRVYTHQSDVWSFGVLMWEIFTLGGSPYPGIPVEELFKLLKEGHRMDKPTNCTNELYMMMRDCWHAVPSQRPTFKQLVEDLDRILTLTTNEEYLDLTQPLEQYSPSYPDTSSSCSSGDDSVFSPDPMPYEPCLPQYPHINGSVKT
T3 sequence (P21802 22-680 isoform P21802-22 limits assumed): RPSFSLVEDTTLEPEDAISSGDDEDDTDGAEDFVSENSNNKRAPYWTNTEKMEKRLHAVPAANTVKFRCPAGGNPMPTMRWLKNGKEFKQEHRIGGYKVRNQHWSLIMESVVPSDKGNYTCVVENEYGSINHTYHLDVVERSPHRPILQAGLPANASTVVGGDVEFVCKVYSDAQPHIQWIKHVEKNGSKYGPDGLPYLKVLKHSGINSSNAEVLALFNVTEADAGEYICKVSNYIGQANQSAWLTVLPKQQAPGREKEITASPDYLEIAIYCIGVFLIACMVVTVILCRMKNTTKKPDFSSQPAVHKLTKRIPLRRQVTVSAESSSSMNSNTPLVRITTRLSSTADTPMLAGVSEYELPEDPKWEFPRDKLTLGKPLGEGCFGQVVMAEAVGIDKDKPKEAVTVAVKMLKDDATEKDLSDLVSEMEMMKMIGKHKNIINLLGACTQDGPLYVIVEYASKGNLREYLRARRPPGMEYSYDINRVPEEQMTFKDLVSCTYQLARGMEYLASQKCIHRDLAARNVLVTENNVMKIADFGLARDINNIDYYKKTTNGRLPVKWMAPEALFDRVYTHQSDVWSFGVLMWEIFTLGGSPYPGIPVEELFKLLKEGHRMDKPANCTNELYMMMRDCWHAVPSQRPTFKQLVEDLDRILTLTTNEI
T2 sequence (P21802 22-822 isoform P21802-3 limits assumed): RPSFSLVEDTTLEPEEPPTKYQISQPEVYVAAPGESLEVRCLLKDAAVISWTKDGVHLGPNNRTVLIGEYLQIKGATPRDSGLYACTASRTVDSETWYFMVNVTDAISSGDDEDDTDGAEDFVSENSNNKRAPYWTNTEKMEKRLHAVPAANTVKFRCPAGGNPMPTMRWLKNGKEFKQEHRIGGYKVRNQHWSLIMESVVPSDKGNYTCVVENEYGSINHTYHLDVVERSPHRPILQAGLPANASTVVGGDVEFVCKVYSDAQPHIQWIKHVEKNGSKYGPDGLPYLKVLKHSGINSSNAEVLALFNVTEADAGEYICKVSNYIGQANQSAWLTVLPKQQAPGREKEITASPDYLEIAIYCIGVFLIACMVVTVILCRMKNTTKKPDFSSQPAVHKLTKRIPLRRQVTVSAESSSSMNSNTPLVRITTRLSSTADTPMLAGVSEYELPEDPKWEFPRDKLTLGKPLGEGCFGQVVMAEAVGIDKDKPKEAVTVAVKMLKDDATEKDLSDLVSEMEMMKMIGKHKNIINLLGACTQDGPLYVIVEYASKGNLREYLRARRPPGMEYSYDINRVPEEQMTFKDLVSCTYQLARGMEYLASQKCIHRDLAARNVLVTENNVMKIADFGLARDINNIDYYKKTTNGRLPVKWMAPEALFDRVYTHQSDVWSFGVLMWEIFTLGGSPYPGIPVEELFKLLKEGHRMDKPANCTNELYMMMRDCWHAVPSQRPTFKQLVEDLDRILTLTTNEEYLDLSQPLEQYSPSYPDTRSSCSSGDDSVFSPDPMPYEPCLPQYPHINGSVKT
T1 sequence (P11362 22-733 isoform P11362-3 limits assumed): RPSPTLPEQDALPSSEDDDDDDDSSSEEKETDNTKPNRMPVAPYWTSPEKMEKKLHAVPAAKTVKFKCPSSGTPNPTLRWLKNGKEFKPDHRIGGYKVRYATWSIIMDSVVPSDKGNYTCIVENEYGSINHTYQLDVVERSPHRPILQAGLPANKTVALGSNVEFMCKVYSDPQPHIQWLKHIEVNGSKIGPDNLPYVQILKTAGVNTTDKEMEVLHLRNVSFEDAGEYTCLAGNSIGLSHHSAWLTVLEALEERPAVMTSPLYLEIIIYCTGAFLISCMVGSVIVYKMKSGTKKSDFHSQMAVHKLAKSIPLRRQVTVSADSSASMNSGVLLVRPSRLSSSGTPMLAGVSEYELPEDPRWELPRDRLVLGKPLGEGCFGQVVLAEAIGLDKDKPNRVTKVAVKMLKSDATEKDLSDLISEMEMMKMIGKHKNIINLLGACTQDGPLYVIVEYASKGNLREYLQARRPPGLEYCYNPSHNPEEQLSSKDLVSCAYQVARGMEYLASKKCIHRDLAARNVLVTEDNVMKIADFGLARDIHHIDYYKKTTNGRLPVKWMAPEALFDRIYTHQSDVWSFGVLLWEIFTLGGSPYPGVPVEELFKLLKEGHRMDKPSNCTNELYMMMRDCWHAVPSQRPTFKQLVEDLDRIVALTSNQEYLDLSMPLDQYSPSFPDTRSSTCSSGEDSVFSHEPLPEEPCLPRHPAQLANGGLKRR
T4 sequence (P22607 23-808 isoform P22607-2 limits assumed): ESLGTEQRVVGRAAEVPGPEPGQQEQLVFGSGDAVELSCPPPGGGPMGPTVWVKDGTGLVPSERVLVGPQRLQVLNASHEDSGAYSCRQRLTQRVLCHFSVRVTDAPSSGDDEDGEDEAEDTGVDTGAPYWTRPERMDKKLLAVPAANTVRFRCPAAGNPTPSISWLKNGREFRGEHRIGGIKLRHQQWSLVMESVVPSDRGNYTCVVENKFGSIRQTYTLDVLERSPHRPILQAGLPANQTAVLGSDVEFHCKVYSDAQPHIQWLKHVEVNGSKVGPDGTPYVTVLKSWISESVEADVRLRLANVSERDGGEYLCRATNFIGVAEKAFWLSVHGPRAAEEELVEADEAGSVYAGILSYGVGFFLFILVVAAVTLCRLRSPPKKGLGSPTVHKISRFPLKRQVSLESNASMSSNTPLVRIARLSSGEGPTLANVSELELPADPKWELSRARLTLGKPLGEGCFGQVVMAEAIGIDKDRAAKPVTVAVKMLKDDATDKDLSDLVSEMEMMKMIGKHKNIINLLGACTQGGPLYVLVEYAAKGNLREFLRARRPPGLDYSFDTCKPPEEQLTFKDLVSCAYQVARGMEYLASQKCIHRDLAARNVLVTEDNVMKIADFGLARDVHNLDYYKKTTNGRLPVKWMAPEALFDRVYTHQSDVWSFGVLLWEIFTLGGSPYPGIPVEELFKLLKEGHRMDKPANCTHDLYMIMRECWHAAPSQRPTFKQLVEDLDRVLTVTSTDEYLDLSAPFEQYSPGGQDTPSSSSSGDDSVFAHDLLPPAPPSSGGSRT

B1: M048-D01 (antibody, V domains shown)
VH: EVQLLESGGGLVQPGGSLRLSCAASGFTFSSYAMSWVRQAPGKGLEWVSAISGSGTSTYYADSVKGRFTISRDNSKNTLYLQMNSLRAEDTAVYYCARVRYNWNHGDWFDPWGQGTLVTVSS
VL: QSVLTQPPSASGTPGQRVTISCSGSSSNIGNNYVSWYQQLPGTAPKLLIYENYNRPAGVPDRFSGSKSGTSASLAISGLRSEDEADYYCSSWDDSLNYWVFGGGTKLTVL
Regarding B1, the “Signal-to-background ratio, hFGFR1β-Fc (IIIc)” value in assay [1] is reported as 0 (0: <2). Besides, the “Signal-to-background ratio, hFGFR2α-Fc (IIIb)” value in [2] is “+++ (+++: >5)”. Further, in [3], the “Signal-to-background ratio, hFGFR2β-Fc (IIIb)” value is given as “+++ (+++: >5)”. For the same molecule, the “Signal-to-background ratio, hFGFR3-Fc (IIIb)” value in assay [4] was 0 (0: <2). The “Signal-to-background ratio, hFGFR3-Fc (IIIc)” value in assay [5] is 0 (0: <2). Besides, in assay [6], the “Signal-to-background ratio, hFGFR4-Fc” value was 0 (0: <2). Further, in assay [7], the “Signal-to-background ratio, mFGFR2β-Fc (IIIb)” value is reported as “+++ (+++: >5)”. Further, in assay [8], the “Signal-to-background ratio, mFGFR3-Fc (IIIc)” value is listed as 0 (0: <2). Moreover, the “Signal-to-background ratio, hFGFR1β-Fc (IIIb)” value in assay [9] is 0 (0: <2). In addition, in assay [10], the “Signal-to-background ratio, hFGFR2β-Fc (IIIc)” value is “+++ (+++: >5)”. The “Signal-to-background ratio, mFGFR2β-Fc (IIIc)” value in assay [11] is listed as “+++ (+++: >5)”.
